The record followed here is paper PMC4761948 (2016).

For the test, the target named is T1, GST-GCM1 (Homo sapiens (Human), UniProt Q9NP62).
T1 chain: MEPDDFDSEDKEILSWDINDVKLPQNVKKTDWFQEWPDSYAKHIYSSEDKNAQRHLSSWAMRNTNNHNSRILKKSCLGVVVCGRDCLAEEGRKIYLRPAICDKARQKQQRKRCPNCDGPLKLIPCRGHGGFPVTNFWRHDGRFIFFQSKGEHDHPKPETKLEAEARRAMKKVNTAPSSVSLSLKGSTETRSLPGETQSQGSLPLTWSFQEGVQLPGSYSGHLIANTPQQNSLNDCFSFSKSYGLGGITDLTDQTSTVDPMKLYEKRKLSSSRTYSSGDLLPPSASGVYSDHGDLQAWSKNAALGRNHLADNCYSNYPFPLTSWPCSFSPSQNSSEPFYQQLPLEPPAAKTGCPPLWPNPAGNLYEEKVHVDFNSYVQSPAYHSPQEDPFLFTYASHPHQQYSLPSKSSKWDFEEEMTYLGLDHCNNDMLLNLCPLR
The test can be described thus: GST pull-down.

B1: GATA3-FLAG (protein)
chain: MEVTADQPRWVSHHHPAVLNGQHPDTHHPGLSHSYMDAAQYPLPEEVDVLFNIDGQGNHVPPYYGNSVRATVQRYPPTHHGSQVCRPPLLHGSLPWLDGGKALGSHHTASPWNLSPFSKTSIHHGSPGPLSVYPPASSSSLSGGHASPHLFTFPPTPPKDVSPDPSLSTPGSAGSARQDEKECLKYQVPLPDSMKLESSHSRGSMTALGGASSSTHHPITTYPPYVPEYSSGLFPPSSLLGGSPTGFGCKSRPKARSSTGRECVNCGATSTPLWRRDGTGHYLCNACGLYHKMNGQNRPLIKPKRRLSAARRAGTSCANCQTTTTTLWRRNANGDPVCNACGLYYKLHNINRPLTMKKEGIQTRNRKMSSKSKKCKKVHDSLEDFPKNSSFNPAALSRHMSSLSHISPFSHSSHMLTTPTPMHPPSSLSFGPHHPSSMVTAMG
For the molecule B1, the binding result is listed as “binds”.
